# In US20160040149A1, “Compositions Having Dicamba Decarboxylase Activity and Methods of Use” (priority 2013, published 2016):
# Changes are numbered by the printed parent chain.
# B1: 92 (protein, listed as Chitinophaga pinensis)
# chain: MARIVTLEEHVSFPEMTALLPEEILKNRKQSGAALQMQEKLADITGERLTSMKAAGISMQVLSVENTDVYLLPDSLAPAFAAKYNDLLADKISSHSDAFAAFAMLPMTVPEAAADELERAVKTHGFCGAMIKGLINGVFLDAPKFAPVFACAEKLGVPLYIHPGIPPKEVIDAYYSNVGDTKGPNEAIACYGWGWHSETAIHILRLLAAGIFDKYPQLNIIIGHMGEMLPMMWERSNRVFQPGNNGKNQRTLIETFRKQLYITTSGIFTQPPLQIAIDTIGIDNILFSIDYPFSSNQMGIDFLTKAALPAEQLAKMAHGNADRILKF
# B2: 94 (protein, listed as Bacillus thuringiensis)
# chain: MANRGDSNMKSLVGVIMGSTSDWETMKYACDILDELNIPYEKKVVSAHRTPDYMFEYAETARERGLKVIIAGAGGAAHLPGMVAAKTNLPVIGVPVQSKALNGLDSLLSIVQMPGGVPVATVAIGKAGSTNAGLLAAQILGSFHDDIHDALELRREAIEKDVREGSELV
# B3: 133 (protein)
# chain: MAQGKVALEEHFAIPETLQDSAGFVPGDYWKELQHRLLDIQDTRLKLMDAHGIETMILSLAAPAVQAIPDRRKAIEIARRANDFLAEECAKRPDRFLAFAALPLQDPDAATEELQRCVNDLGFVGALVNGFSQEGDGQTPLYYDLPQYRPFWGEVEKLDVPFYLHPRNPLPQDSRIYDGHPWLLGPTWAFAQETAVHALRLMASGLFDEHPRLNIILGHMGEGLPYMMYRIDHRIAWVKLPPRYPAKRRFMDYFNENFHITTSGNFRTQTLIDAILEIGADRILFSTDWPFENIDHAADWFNATSIAEADRVKIGRTNARRLFKLDGA
# modifications: Dicamba decarboxylase variant
# B4: 134 (protein)
# chain: B3 chain with F84M, M220L, K239H, L240E, F250L
# modifications: Dicamba decarboxylase variant
# B5: 137 (protein)
# chain: B3 chain with D120T, K239H, L240E, V312L
# modifications: Dicamba decarboxylase variant
# B6: 136 (protein)
# chain: B3 chain with D120T, Q133V, M220L, K239H, L240E
# modifications: Dicamba decarboxylase variant
# B7: 135 (protein)
# chain: B3 chain with K46R, Q133V, M220L, N255L, A328D
# modifications: Dicamba decarboxylase variant
# B8: 93 (protein, listed as Mucilaginibacter paludis)
# chain: MAKYGKHITINKNMRIVTLEEHISFPEMADQIPKAALGSFGRSEAMQRIAPKLADITGERLKSMDANGISMQVLSVDSSGVNLLSPQQGPAFATQYNDLIANRIAGFEKRFTAFAHLPMTAPFAAADELERAVKEHHFCGAMIRGLTGDQFLDHPQFAPIFERAQKLDVPIYLHPGLPPKGVADIYYSGLPNYSGMAEALACYGWGWHSETALHVLRLLFSGIFDQYPKLKLVIGHMGEMLPMMMARSEKAFKPGNGGANVRTLTDTFRSQVYLTTSGFFTQPPLKIALDTFGIDHVMFSVDYPFSTNEMGIEFLNEIDLPDEEVARIAHGNADKLLNLKA
# B9: 5 (protein, listed as Staphylococcus aureus)
# chain: MAQNNMEANQMKSITFEEHYVIEDIQKETMNAISADPKGVPMKVMLEGLEKKTGFTNADELSHHDERIQFMNNQDVQIQVLSYGNGSPSNLVGQKAIELCQKANDQLANYIAQYPNRFVGFATLPINEPEAAAREFERCINDLGFKGALIMGRAQDGFLDQDKYDIIFKTAENLGVPIYLHPAPVNSDIYQSYYKGNYPEVTAATFACFGYGWHIDVGIHAIHLVLSGIFDRYPKLNMIIGHWGEFIPFFLERMDEALFAEHLNHPVSYYFKNNFYITPSGMLTKPQFDLVKKEAGIDRILYAADYPYIEPEKLGVFLDELGLTDEEKEKISYTNGAKLLGLSSNN
# Assay: Saturation mutagenesis of SEQ ID NO:109: dicamba decarboxylation activity of point mutants (CO2 released), fold of backbone (Tables 7, 8, Megatable 1)
# Settings: decarboxylation activity (CO2 released) of point mutant vs unmutated backbone protein; backbone SEQ ID NO: 109
row,Molecule,Fold Activity
1,B1,1.7 fold
2,B2,1.5 fold
3,B3,1.3 fold
4,B4,1.5 fold
5,B5,1.1 fold
6,B6,1.2 fold
7,B7,1.5 fold
8,B8,1.6 fold
9,B9,0.8 fold

# Assay: DNA shuffling libraries: 14CO2 capturing assay in 384-well format, fold activity of backbone (Megatable 2)
# Settings: relative to backbone SEQ ID NO: 133 (DDEC0201)
row,Molecule,Fold Activity
1,B3,1.0 fold
2,B4,1.1 fold
3,B5,1.4 fold
4,B6,1.4 fold
5,B7,1.3 fold
